# Data taken from patent US20120244144A1 (University of Texas, published 2012).
# B1: 1B7 Fab (Fab)
# chain: DIQMTQSPALMSASPGEKVTMTCSASSSVSFMYWYQQKPRSSPKPWIYLTSNLPSGVPARFSGSGSGTSYSLTISSMEAEDAATYYCQQWSSHPPTFGSGTKLEIKRGGGGSGGGGSGGGGSGGGGSEVQLQQSGSELVRPGASVKLSCKASGYKFTSYWMHWVKQRPGQGLEWIGNIFPGSGSTNYDEKFNSKATLTVDTSSNTAYMQLSSLTSEDSAVYYCTRWLSGAYFDYWGQGTTLTVSSASGA
# Experiments:
# [1] = molecular target: pertussis toxin holotoxin (Bordetella pertussis) (UniProt P04977); test: competition ELISA (Friguet), 5 nM antibody, soluble PT
# [2] = molecular target: pertussis toxin holotoxin (Bordetella pertussis) (UniProt P04977); test: cell-based or functional assay
# [3] = molecular target: pertussis toxin holotoxin (Bordetella pertussis), P04977; settings: remark: other sources report otherwise
Molecule,Kd [1] [nM],"In Vitro Neutralization (nM), minimum protective concentration, CHO clustering assay [2] [nM]",Kd [3] [nM]
11E6 scAb (scFv),19,377,–
1B7 F(ab)2,–,15,–
11E6 Fab,9.3,42,–
B1,–,–,2
